Like-named read-outs stand apart in the source and are kept apart here.
System: cytochrome P-450 reductase from P. somniferum cell suspension cultures
Conditions: for Km: read-out: Km value, purified P. somniferum reductase (mixture of two isozymes)
Protocol: Purification and sequence analysis. Cells were harvested from seven-day-old suspension cultures of P. somniferum by vacuum filtration, immediately shock frozen and stored at −20° C. All of the following operations were carried out at 4° C. 500 g frozen tissue were then homogenised with a mortar and pestle in 1 liter 0.1 M tricine/NaOH, pH 7.5 containing 15 mM thioglycolic acid. Cell debris was removed by centrifugation at 10,000× g, 30 min. The supernatant was filtered through four layers of cheesecloth and the microsomes were then isolated by MgCl2 precipitation according to (19). […] Microsomal protein was solubilized as follows. 2 mg CHAPS (3[(3-cholamidopropyl)dimethyl-ammonio]-1-propane-sulfonate, Roth) per mg microsomal protein was prepared in 1 mL of 0.1 M tricine/NaOH, pH 7.5 containing 15 mM thioglycolic acid. This solution was added dropwise to the microsomal suspension. 2% (v/v) Emulgen 911 (Kao Corporation) was then added and the solution slowly stirred for 1 h. Membrane fragments were removed by centrifugation at 105,000× g for 60 min. The total activity in the solubilized microsomes was assigned the value 100%. The solubilized cytochrome P-450 reductase was then purified to electrophoretic homogeneity according to (20).
Yeast microsomes were isolated according to either (22) or (23) and the presence cytochrome P-450 reductase was measured as the ability to reduce cytochrome c (24).

Row | Compound | optimal molarity range of the Tricine buffer [mM] | activity declined to (at 100 mM Tricine) [%] | activity declined to (at 1 M Tricine) [%] | pH optimum (in 0.5 M Tricine buffer) | Km [µM]
1 | purified reductase: cytochrome P-450 reductase purified from P. somniferum cell suspension cultures | 250 to 500 | 21 | 77 | 8.0 | 
2 | NC(=O)C1=CN([C@@H]2O[C@H](COP(=O)(O)OP(=O)(O)OC[C@H]3O[C@@H](n4cnc5c(N)ncnc54)[C@H](OP(=O)(O)O)[C@@H]3O)[C@@H](O)[C@H]2O)C=CC1 [NADPH, reference compound] |  |  |  |  | 4.2
3 | cytochrome c [reference compound] |  |  |  |  | 8.3
